Experimental data taken from article PMC9775220, “Distal Mutations Shape Substrate-Binding Sites during Evolution of a Metallo-Oxidase into a Laccase” (ACS Catalysis, 2022).

Substrate: CCn1c(=NN=c2sc3cc(S(=O)(=O)O)ccc3n2CC)sc2cc(S(=O)(=O)O)ccc21
Assay: purified protein
Assay type: biochemical, Aquifex aeolicus
Conditions: pH 4, 40 °C
[1] = 2F4-loop 5 (Met-loop cut to five residues)

Protein	Km (wild-type background) [µM]	kcat (wild-type background) [s⁻¹]	also measured
McoA (wild type) (Aquifex aeolicus VF5; DEL329-352/F55S/I199T/I441L/M449T/P58S/R471G) (protein, 43-residue N-terminal Tat signal peptide removed in 2B3wsp and the shuffling parents (stated for wild type); expressed in E. coli Tuner delta-cueO from pET-21a(+); purified, Cu-loaded in vitro; monomer) LSKQSLNIPGYSLFSDGQRVSITAKWTTLEVIPGKSTDMLVYEIDNEYNPVIFLRKGQTFSADFVNNSGEDSIIHWHGFRAPWKSDGHPYYAVKDGETYSYPDFTIIDRSGTYFYHPHPHGRTGYQVYYGLAGMIIIEDEDEDNLKQALDLEYGVTDIPLIIQDKTFDSSGQLVYNPMGHMGFWGDTILVNLTPNPYMDVERKIYRFRILNGSNARPYRLALLRGNQRMRFWVIGVEGGLLDTPKEVNEILVAPGERIDILVDFRDASVNDVIKLYNFPHNLIGMMGMADNSEFEVMEFRVTKDSAYDKSIPQRLSEVTPINTDGAQVQRITLGMRRMVFTINGETWEDGYANPQDINNPKVLFEQNNGDVVILEYVNNTGTYHPMHIHGFQFQVLERSLGPLGATDLGWKDTVIVAPMETVRIAVDMSHPYNEHQIYLLHCHILEHHDEGMMVNYRVNA			Km [1]: 3800 ± 600 µM; kcat [1]: 133 ± 20 s⁻¹
McoA (wild type) (Aquifex aeolicus VF5; F55S/I199T/I441L/M449T/P58S/R471G) (protein, 43-residue N-terminal Tat signal peptide removed in 2B3wsp and the shuffling parents (stated for wild type); expressed in E. coli Tuner delta-cueO from pET-21a(+); purified, Cu-loaded in vitro; monomer) LSKQSLNIPGYSLFSDGQRVSITAKWTTLEVIPGKSTDMLVYEIDNEYNPVIFLRKGQTFSADFVNNSGEDSIIHWHGFRAPWKSDGHPYYAVKDGETYSYPDFTIIDRSGTYFYHPHPHGRTGYQVYYGLAGMIIIEDEDEDNLKQALDLEYGVTDIPLIIQDKTFDSSGQLVYNPMGHMGFWGDTILVNLTPNPYMDVERKIYRFRILNGSNARPYRLALLRGNQRMRFWVIGVEGGLLDTPKEVNEILVAPGERIDILVDFRDASVNDVIKLYNFPHNLIGMGMIGMRMGMGMERGMGMGNGMNMDMGMADNSEFEVMEFRVTKDSAYDKSIPQRLSEVTPINTDGAQVQRITLGMRRMVFTINGETWEDGYANPQDINNPKVLFEQNNGDVVILEYVNNTGTYHPMHIHGFQFQVLERSLGPLGATDLGWKDTVIVAPMETVRIAVDMSHPYNEHQIYLLHCHILEHHDEGMMVNYRVNA			Km (evolved variant 2F4): 1500 ± 400 µM; kcat (evolved variant 2F4): 273 ± 9 s⁻¹
McoA (wild type) (Aquifex aeolicus VF5) (protein, 43-residue N-terminal Tat signal peptide removed in 2B3wsp and the shuffling parents (stated for wild type); expressed in E. coli Tuner delta-cueO from pET-21a(+); purified, Cu-loaded in vitro; monomer) LSKQSLNIPGYFLFPDGQRVSITAKWTTLEVIPGKSTDMLVYEIDNEYNPVIFLRKGQTFSADFVNNSGEDSIIHWHGFRAPWKSDGHPYYAVKDGETYSYPDFTIIDRSGTYFYHPHPHGRTGYQVYYGLAGMIIIEDEDEDNLKQALDLEYGVIDIPLIIQDKTFDSSGQLVYNPMGHMGFWGDTILVNLTPNPYMDVERKIYRFRILNGSNARPYRLALLRGNQRMRFWVIGVEGGLLDTPKEVNEILVAPGERIDILVDFRDASVNDVIKLYNFPHNLIGMGMIGMRMGMGMERGMGMGNGMNMDMGMADNSEFEVMEFRVTKDSAYDKSIPQRLSEVTPINTDGAQVQRITLGMRRMVFTINGETWEDGYANPQDINNPKVLFEQNNGDVVIIEYVNNTGMYHPMHIHGFQFQVLERSLGPLRATDLGWKDTVIVAPMETVRIAVDMSHPYNEHQIYLLHCHILEHHDEGMMVNYRVNA			Km: 1300 ± 200 µM; kcat: 25 ± 3 s⁻¹
McoA (wild type) (Aquifex aeolicus VF5; F55S/I199T/I441L/P58S/R471G) (protein, 43-residue N-terminal Tat signal peptide removed in 2B3wsp and the shuffling parents (stated for wild type); expressed in E. coli Tuner delta-cueO from pET-21a(+); purified, Cu-loaded in vitro; monomer) LSKQSLNIPGYSLFSDGQRVSITAKWTTLEVIPGKSTDMLVYEIDNEYNPVIFLRKGQTFSADFVNNSGEDSIIHWHGFRAPWKSDGHPYYAVKDGETYSYPDFTIIDRSGTYFYHPHPHGRTGYQVYYGLAGMIIIEDEDEDNLKQALDLEYGVTDIPLIIQDKTFDSSGQLVYNPMGHMGFWGDTILVNLTPNPYMDVERKIYRFRILNGSNARPYRLALLRGNQRMRFWVIGVEGGLLDTPKEVNEILVAPGERIDILVDFRDASVNDVIKLYNFPHNLIGMGMIGMRMGMGMERGMGMGNGMNMDMGMADNSEFEVMEFRVTKDSAYDKSIPQRLSEVTPINTDGAQVQRITLGMRRMVFTINGETWEDGYANPQDINNPKVLFEQNNGDVVILEYVNNTGMYHPMHIHGFQFQVLERSLGPLGATDLGWKDTVIVAPMETVRIAVDMSHPYNEHQIYLLHCHILEHHDEGMMVNYRVNA			Km (reversion T449M in 2F4): 3100 ± 900 µM; kcat (reversion T449M in 2F4): 99 ± 8 s⁻¹
McoA (wild type) (Aquifex aeolicus VF5; M449T) (protein, 43-residue N-terminal Tat signal peptide removed in 2B3wsp and the shuffling parents (stated for wild type); expressed in E. coli Tuner delta-cueO from pET-21a(+); purified, Cu-loaded in vitro; monomer) LSKQSLNIPGYFLFPDGQRVSITAKWTTLEVIPGKSTDMLVYEIDNEYNPVIFLRKGQTFSADFVNNSGEDSIIHWHGFRAPWKSDGHPYYAVKDGETYSYPDFTIIDRSGTYFYHPHPHGRTGYQVYYGLAGMIIIEDEDEDNLKQALDLEYGVIDIPLIIQDKTFDSSGQLVYNPMGHMGFWGDTILVNLTPNPYMDVERKIYRFRILNGSNARPYRLALLRGNQRMRFWVIGVEGGLLDTPKEVNEILVAPGERIDILVDFRDASVNDVIKLYNFPHNLIGMGMIGMRMGMGMERGMGMGNGMNMDMGMADNSEFEVMEFRVTKDSAYDKSIPQRLSEVTPINTDGAQVQRITLGMRRMVFTINGETWEDGYANPQDINNPKVLFEQNNGDVVIIEYVNNTGTYHPMHIHGFQFQVLERSLGPLRATDLGWKDTVIVAPMETVRIAVDMSHPYNEHQIYLLHCHILEHHDEGMMVNYRVNA	1000 ± 100	27 ± 1	
McoA (wild type) (Aquifex aeolicus VF5; I199T) (protein, 43-residue N-terminal Tat signal peptide removed in 2B3wsp and the shuffling parents (stated for wild type); expressed in E. coli Tuner delta-cueO from pET-21a(+); purified, Cu-loaded in vitro; monomer) LSKQSLNIPGYFLFPDGQRVSITAKWTTLEVIPGKSTDMLVYEIDNEYNPVIFLRKGQTFSADFVNNSGEDSIIHWHGFRAPWKSDGHPYYAVKDGETYSYPDFTIIDRSGTYFYHPHPHGRTGYQVYYGLAGMIIIEDEDEDNLKQALDLEYGVTDIPLIIQDKTFDSSGQLVYNPMGHMGFWGDTILVNLTPNPYMDVERKIYRFRILNGSNARPYRLALLRGNQRMRFWVIGVEGGLLDTPKEVNEILVAPGERIDILVDFRDASVNDVIKLYNFPHNLIGMGMIGMRMGMGMERGMGMGNGMNMDMGMADNSEFEVMEFRVTKDSAYDKSIPQRLSEVTPINTDGAQVQRITLGMRRMVFTINGETWEDGYANPQDINNPKVLFEQNNGDVVIIEYVNNTGMYHPMHIHGFQFQVLERSLGPLRATDLGWKDTVIVAPMETVRIAVDMSHPYNEHQIYLLHCHILEHHDEGMMVNYRVNA	900 ± 200	27 ± 5	
McoA (wild type) (Aquifex aeolicus VF5; R471G) (protein, 43-residue N-terminal Tat signal peptide removed in 2B3wsp and the shuffling parents (stated for wild type); expressed in E. coli Tuner delta-cueO from pET-21a(+); purified, Cu-loaded in vitro; monomer) LSKQSLNIPGYFLFPDGQRVSITAKWTTLEVIPGKSTDMLVYEIDNEYNPVIFLRKGQTFSADFVNNSGEDSIIHWHGFRAPWKSDGHPYYAVKDGETYSYPDFTIIDRSGTYFYHPHPHGRTGYQVYYGLAGMIIIEDEDEDNLKQALDLEYGVIDIPLIIQDKTFDSSGQLVYNPMGHMGFWGDTILVNLTPNPYMDVERKIYRFRILNGSNARPYRLALLRGNQRMRFWVIGVEGGLLDTPKEVNEILVAPGERIDILVDFRDASVNDVIKLYNFPHNLIGMGMIGMRMGMGMERGMGMGNGMNMDMGMADNSEFEVMEFRVTKDSAYDKSIPQRLSEVTPINTDGAQVQRITLGMRRMVFTINGETWEDGYANPQDINNPKVLFEQNNGDVVIIEYVNNTGMYHPMHIHGFQFQVLERSLGPLGATDLGWKDTVIVAPMETVRIAVDMSHPYNEHQIYLLHCHILEHHDEGMMVNYRVNA	2300 ± 200	98 ± 4	
McoA (wild type) (Aquifex aeolicus VF5; P58S) (protein, 43-residue N-terminal Tat signal peptide removed in 2B3wsp and the shuffling parents (stated for wild type); expressed in E. coli Tuner delta-cueO from pET-21a(+); purified, Cu-loaded in vitro; monomer) LSKQSLNIPGYFLFSDGQRVSITAKWTTLEVIPGKSTDMLVYEIDNEYNPVIFLRKGQTFSADFVNNSGEDSIIHWHGFRAPWKSDGHPYYAVKDGETYSYPDFTIIDRSGTYFYHPHPHGRTGYQVYYGLAGMIIIEDEDEDNLKQALDLEYGVIDIPLIIQDKTFDSSGQLVYNPMGHMGFWGDTILVNLTPNPYMDVERKIYRFRILNGSNARPYRLALLRGNQRMRFWVIGVEGGLLDTPKEVNEILVAPGERIDILVDFRDASVNDVIKLYNFPHNLIGMGMIGMRMGMGMERGMGMGNGMNMDMGMADNSEFEVMEFRVTKDSAYDKSIPQRLSEVTPINTDGAQVQRITLGMRRMVFTINGETWEDGYANPQDINNPKVLFEQNNGDVVIIEYVNNTGMYHPMHIHGFQFQVLERSLGPLRATDLGWKDTVIVAPMETVRIAVDMSHPYNEHQIYLLHCHILEHHDEGMMVNYRVNA	2500 ± 200	75 ± 3	
McoA (wild type) (Aquifex aeolicus VF5; F55S/I199T/I441L/M449T/P58S) (protein, 43-residue N-terminal Tat signal peptide removed in 2B3wsp and the shuffling parents (stated for wild type); expressed in E. coli Tuner delta-cueO from pET-21a(+); purified, Cu-loaded in vitro; monomer) LSKQSLNIPGYSLFSDGQRVSITAKWTTLEVIPGKSTDMLVYEIDNEYNPVIFLRKGQTFSADFVNNSGEDSIIHWHGFRAPWKSDGHPYYAVKDGETYSYPDFTIIDRSGTYFYHPHPHGRTGYQVYYGLAGMIIIEDEDEDNLKQALDLEYGVTDIPLIIQDKTFDSSGQLVYNPMGHMGFWGDTILVNLTPNPYMDVERKIYRFRILNGSNARPYRLALLRGNQRMRFWVIGVEGGLLDTPKEVNEILVAPGERIDILVDFRDASVNDVIKLYNFPHNLIGMGMIGMRMGMGMERGMGMGNGMNMDMGMADNSEFEVMEFRVTKDSAYDKSIPQRLSEVTPINTDGAQVQRITLGMRRMVFTINGETWEDGYANPQDINNPKVLFEQNNGDVVILEYVNNTGTYHPMHIHGFQFQVLERSLGPLRATDLGWKDTVIVAPMETVRIAVDMSHPYNEHQIYLLHCHILEHHDEGMMVNYRVNA			Km (reversion G471R in 2F4): 6000 ± 1000 µM; kcat (reversion G471R in 2F4): 235 ± 9 s⁻¹
McoA (wild type) (Aquifex aeolicus VF5; F55S) (protein, 43-residue N-terminal Tat signal peptide removed in 2B3wsp and the shuffling parents (stated for wild type); expressed in E. coli Tuner delta-cueO from pET-21a(+); purified, Cu-loaded in vitro; monomer) LSKQSLNIPGYSLFPDGQRVSITAKWTTLEVIPGKSTDMLVYEIDNEYNPVIFLRKGQTFSADFVNNSGEDSIIHWHGFRAPWKSDGHPYYAVKDGETYSYPDFTIIDRSGTYFYHPHPHGRTGYQVYYGLAGMIIIEDEDEDNLKQALDLEYGVIDIPLIIQDKTFDSSGQLVYNPMGHMGFWGDTILVNLTPNPYMDVERKIYRFRILNGSNARPYRLALLRGNQRMRFWVIGVEGGLLDTPKEVNEILVAPGERIDILVDFRDASVNDVIKLYNFPHNLIGMGMIGMRMGMGMERGMGMGNGMNMDMGMADNSEFEVMEFRVTKDSAYDKSIPQRLSEVTPINTDGAQVQRITLGMRRMVFTINGETWEDGYANPQDINNPKVLFEQNNGDVVIIEYVNNTGMYHPMHIHGFQFQVLERSLGPLRATDLGWKDTVIVAPMETVRIAVDMSHPYNEHQIYLLHCHILEHHDEGMMVNYRVNA	2400 ± 400	67 ± 4	
McoA (wild type) (Aquifex aeolicus VF5; I441L) (protein, 43-residue N-terminal Tat signal peptide removed in 2B3wsp and the shuffling parents (stated for wild type); expressed in E. coli Tuner delta-cueO from pET-21a(+); purified, Cu-loaded in vitro; monomer) LSKQSLNIPGYFLFPDGQRVSITAKWTTLEVIPGKSTDMLVYEIDNEYNPVIFLRKGQTFSADFVNNSGEDSIIHWHGFRAPWKSDGHPYYAVKDGETYSYPDFTIIDRSGTYFYHPHPHGRTGYQVYYGLAGMIIIEDEDEDNLKQALDLEYGVIDIPLIIQDKTFDSSGQLVYNPMGHMGFWGDTILVNLTPNPYMDVERKIYRFRILNGSNARPYRLALLRGNQRMRFWVIGVEGGLLDTPKEVNEILVAPGERIDILVDFRDASVNDVIKLYNFPHNLIGMGMIGMRMGMGMERGMGMGNGMNMDMGMADNSEFEVMEFRVTKDSAYDKSIPQRLSEVTPINTDGAQVQRITLGMRRMVFTINGETWEDGYANPQDINNPKVLFEQNNGDVVILEYVNNTGMYHPMHIHGFQFQVLERSLGPLRATDLGWKDTVIVAPMETVRIAVDMSHPYNEHQIYLLHCHILEHHDEGMMVNYRVNA	1500 ± 200	79 ± 5	
